Data reported in the supplement of paper PMC7877785.
± gives the uncertainty stated by the source.

Experiment: self-splicing fitness, log relative to wild type (ln ratio); higher = more splicing; Tetrahymena group I intron in knt gene, E. coli kanamycin selection, DiMSum; sequences stand for … in CUCUCU…GGAGGGAAAAGUUAUCAGGCAUGCACCUGGUAGCUAGUCUUUAAACCAAUAGAUUGCAUCGGUUUAAAAGGCAAGACCGUCAAAUUGCGGGAAAGGGGUCAACAGCCGUUCAGUACCAAGUCUCAGGGGAAACUUUGAGAUGGCCUUGCAAAGGGUAUGGUAAUAAGCUGACGGACAUGGUCCUAACCACGCAGCCAAGUCCUAAGUCAACAGAUCUUCUGUUGAUAUGGAUGCAGUUCACAGACUAAAUGUCGGUCGGGGAAGAUGUAUUCUUCUCAUAAGAUAUAGUCGGACCUCUCCUUAAUGGGAGCUAGCGGAUGAAGUGAUGCAACACUGGAGCCGCUGGGAACUAAUUUGUAUGCGAAAGUAUAUUGAUUAGUUUUGGAGUACUCGUGGUCG
In short: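 DiMSum derived fitness as the error-weighted combination of fold changes across replicates, kanamycin versus no kanamycin, normalised to wild type. E. coli BL21(DE3) held the library, which randomised all eight P1ex-region intron nucleotides within the knt kanamycin-resistance gene on pET-22b(+). Six replicate transformations grew overnight at 37°C or 30°C on LB agar with or without 25 μg/mL kanamycin, also containing 100 μg/mL carbenicillin, 50 μM IPTG and 0.2% rhamnose, and pooled colonies were amplicon-sequenced on an Illumina HiSeq 2500.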

For GAUAAGCAAUAUUACGGGGG, the “self-splicing fitness (ln)” value (30 °C) was -3.65 ± 0.26 and the “self-splicing fitness (ln)” value (37 °C) was -3.04 ± 0.28.

In the case of CCCGAGCAAUAUUACGCUGC, the “self-splicing fitness (ln)” value (30 °C) is reported as -2.93 ± 0.21 and the “self-splicing fitness (ln)” value (37 °C) is reported as -2.63 ± 0.3.

For ACUCAGCAAUAUUACGAAUU, the “self-splicing fitness (ln)” value (30 °C) was -0.96 ± 0.089 and the “self-splicing fitness (ln)” value (37 °C) was -0.208 ± 0.085.

With ACUUAGCAAUAUUACGAGGC the “self-splicing fitness (ln)” value (30 °C) was -3.25 ± 0.5.

For UCAUAGCAAUAUUACGGGAA, the “self-splicing fitness (ln)” value (30 °C) was -1.35 ± 0.19 and the “self-splicing fitness (ln)” value (37 °C) was -1.1 ± 0.16.

For GUGUAGCAAUAUUACGCGCG, the “self-splicing fitness (ln)” value (30 °C) was -2.48 ± 0.36 and the “self-splicing fitness (ln)” value (37 °C) was -2.62 ± 0.38.

In the case of CGUAAGCAAUAUUACGCUAG, the “self-splicing fitness (ln)” value (30 °C) is reported as -2.48 ± 0.13 and the “self-splicing fitness (ln)” value (37 °C) is reported as -0.429 ± 0.14.

For GAUGAGCAAUAUUACGUUGA, the “self-splicing fitness (ln)” value (30 °C) was -3.32 ± 0.43 and the “self-splicing fitness (ln)” value (37 °C) was -1.5 ± 0.2.

With CGGCAGCAAUAUUACGCCGU the “self-splicing fitness (ln)” value (30 °C) was -3.6 ± 0.29 and the “self-splicing fitness (ln)” value (37 °C) was -2.29 ± 0.19.

For AUGAAGCAAUAUUACGACUC, the “self-splicing fitness (ln)” value (30 °C) was 0.055 ± 0.11 and the “self-splicing fitness (ln)” value (37 °C) was 0.123 ± 0.13.

With ACAAAGCAAUAUUACGUCAG the “self-splicing fitness (ln)” value (30 °C) was -2.7 ± 0.14 and the “self-splicing fitness (ln)” value (37 °C) was -1.47 ± 0.12.

With UUGGAGCAAUAUUACGGUUA the “self-splicing fitness (ln)” value (30 °C) was -2.08 ± 0.45 and the “self-splicing fitness (ln)” value (37 °C) was -1.49 ± 0.25.

In the case of AUACAGCAAUAUUACGACCG, the “self-splicing fitness (ln)” value (30 °C) is reported as -1.22 ± 0.096 and the “self-splicing fitness (ln)” value (37 °C) is reported as -0.49 ± 0.1.

For GGACAGCAAUAUUACGUAAG, the “self-splicing fitness (ln)” value (30 °C) was -0.165 ± 0.061 and the “self-splicing fitness (ln)” value (37 °C) was 0.19 ± 0.079.

In the case of GUUGAGCAAUAUUACGAAAU, the “self-splicing fitness (ln)” value (30 °C) is reported as -3.35 ± 0.44 and the “self-splicing fitness (ln)” value (37 °C) is reported as -0.897 ± 0.27.

In the case of GAGAAGCAAUAUUACGUCGU, the “self-splicing fitness (ln)” value (30 °C) is reported as -2.16 ± 0.075 and the “self-splicing fitness (ln)” value (37 °C) is reported as -0.855 ± 0.077.

For CUCGAGCAAUAUUACGCCUC, the “self-splicing fitness (ln)” value (30 °C) was -1.8 ± 0.21.

For CGCUAGCAAUAUUACGUGUC, the “self-splicing fitness (ln)” value (30 °C) was -2.34 ± 0.13 and the “self-splicing fitness (ln)” value (37 °C) was -2.78 ± 0.17.

For ACGGAGCAAUAUUACGGUGG, the “self-splicing fitness (ln)” value (30 °C) was -3.07 ± 0.18 and the “self-splicing fitness (ln)” value (37 °C) was -2.22 ± 0.26.

With CUCCAGCAAUAUUACGUUCC the “self-splicing fitness (ln)” value (30 °C) was -4.23 ± 0.46 and the “self-splicing fitness (ln)” value (37 °C) was -1.99 ± 0.35.

With CCCUAGCAAUAUUACGCCCA the “self-splicing fitness (ln)” value (30 °C) was -3.12 ± 0.25 and the “self-splicing fitness (ln)” value (37 °C) was -3.76 ± 0.42.

For ACAUAGCAAUAUUACGCCCA, the “self-splicing fitness (ln)” value (30 °C) was -0.769 ± 0.13 and the “self-splicing fitness (ln)” value (37 °C) was -0.85 ± 0.15.

With UAAAAGCAAUAUUACGAUAA the “self-splicing fitness (ln)” value (30 °C) was -0.739 ± 0.077 and the “self-splicing fitness (ln)” value (37 °C) was -0.348 ± 0.1.

With UUUGAGCAAUAUUACGCGGG the “self-splicing fitness (ln)” value (30 °C) was -2.66 ± 0.24 and the “self-splicing fitness (ln)” value (37 °C) was -1.45 ± 0.21.

For UGGAAGCAAUAUUACGACGC, the “self-splicing fitness (ln)” value (30 °C) was -1.66 ± 0.22 and the “self-splicing fitness (ln)” value (37 °C) was -1.05 ± 0.28.

For CUUGAGCAAUAUUACGGCAU, the “self-splicing fitness (ln)” value (37 °C) was -1.93 ± 0.28.

In the case of GGCUAGCAAUAUUACGAGUC, the “self-splicing fitness (ln)” value (37 °C) is reported as -1.08 ± 0.26.

In the case of GGUGAGCAAUAUUACGAUCA, the “self-splicing fitness (ln)” value (30 °C) is reported as -1.24 ± 0.13 and the “self-splicing fitness (ln)” value (37 °C) is reported as -0.356 ± 0.15.

With AAGGAGCAAUAUUACGGCUA the “self-splicing fitness (ln)” value (30 °C) was -1.92 ± 0.12 and the “self-splicing fitness (ln)” value (37 °C) was -0.126 ± 0.13.

With ACGCAGCAAUAUUACGUUUA the “self-splicing fitness (ln)” value (30 °C) was -2.58 ± 0.12 and the “self-splicing fitness (ln)” value (37 °C) was -1.42 ± 0.095.

For AUACAGCAAUAUUACGGACG, the “self-splicing fitness (ln)” value (30 °C) was -1.61 ± 0.091 and the “self-splicing fitness (ln)” value (37 °C) was -1.04 ± 0.098.

With UUUUAGCAAUAUUACGGCAC the “self-splicing fitness (ln)” value (37 °C) was -0.642 ± 0.28.

With ACGAAGCAAUAUUACGGUGC the “self-splicing fitness (ln)” value (30 °C) was -4.82 ± 0.27 and the “self-splicing fitness (ln)” value (37 °C) was -3.17 ± 0.2.

For GUACAGCAAUAUUACGAGAG, the “self-splicing fitness (ln)” value (30 °C) was -2.62 ± 0.29 and the “self-splicing fitness (ln)” value (37 °C) was -2.64 ± 0.25.

With CUUGAGCAAUAUUACGGUAA the “self-splicing fitness (ln)” value (37 °C) was -2.99 ± 0.47.

For CUCCAGCAAUAUUACGCAUU, the “self-splicing fitness (ln)” value (30 °C) was -3.38 ± 0.13 and the “self-splicing fitness (ln)” value (37 °C) was -3.51 ± 0.23.

For UCCAAGCAAUAUUACGUCGG, the “self-splicing fitness (ln)” value (30 °C) was -1.11 ± 0.074 and the “self-splicing fitness (ln)” value (37 °C) was -0.182 ± 0.091.

With UGUGAGCAAUAUUACGGCCC the “self-splicing fitness (ln)” value (30 °C) was -1.88 ± 0.33 and the “self-splicing fitness (ln)” value (37 °C) was -1.43 ± 0.44.

In the case of UACAAGCAAUAUUACGCGCG, the “self-splicing fitness (ln)” value (30 °C) is reported as -0.759 ± 0.088 and the “self-splicing fitness (ln)” value (37 °C) is reported as 0.0647 ± 0.1.

For UCAAAGCAAUAUUACGGACC, the “self-splicing fitness (ln)” value (37 °C) was -2.54 ± 0.32.
